{
  "source": "patent US20080166345A1",
  "about": "“MEDICAMENTS COMPRISING GENE RECOMBINANT ANTIBODY AGAINST GANGLIOSIDE GD3” (KYOWA HAKKO KOGYO CO., LTD., priority 2001, published 2008)",
  "key": {"[1]": {"settings": "human peripheral blood monocyte as effector; cited from earlier work"}, "[2]": {"system": "human melanoma culture cell line SK-MEL-28", "assay": "Reactivity with human cancer cell (immunofluorescent method)", "assay_type": "binding", "settings": "antibody 5 μg/ml; FIG. 23", "experimental": "(§1) Reactivity of purified anti-GD3 CDR-grafted antibodies KM8869, KM8870 and KM8871 with human cancer cells was measured as follows. That is, 1×10^6 cells of each of human melanoma culture cell lines G-361 (ATCC CRL 1424) and SK-MEL-28 (ATCC HTB72) were suspended in PBS, put into microtubes and centrifuged (2,000 rpm for 2 minutes), and the thus washed cells were stirred after adding 50 μl of the anti-GD3 chimeric antibody KM871 or the anti-GD3 CDR-grafted antibody, KM8869, KM8870 or KM8871 (a solution adjusted to 5 μg/ml with 1% BSA-PBS) and then allowed to react at 4° C. for 1 hour. After the reaction, followed by centrifugation three times with PBS for washing, 20 μl of rabbit anti-human IgG (H+L) F(ab′)2 solution (manufactured by Wako Pure chemical Industries, used by diluting 30 folds with 1% BSA-PBS) fluorescence-labeled with fluorescein isothiocyanate (hereinafter referred to as “FITC”) was added thereto, followed by stirring, and then the reaction was carried out at 4° C. for 1 hour. After the reaction, followed by centrifugation three times with PBS for washing, the cells were again suspended in PBS to carry out the analysis using a flow cytometer EPICS Elite (manufactured by COULTER). As a control, the analysis was carried out by the same procedure without adding antibodies."}, "[3]": {"system": "human melanoma culture cell line G-361", "assay": "Reactivity with human cancer cell (immunofluorescent method)", "assay_type": "binding", "settings": "antibody 5 μg/ml; FIG. 23", "experimental": "as §1"}, "B16-F10 cell": {"system": "B16-F10 cell", "assay": "Fluorescent antibody technique (flow cytometer), parent cell line", "assay_type": "binding, mouse", "settings": "antibody 5 μg/ml; FIG. 3", "experimental": "Each of 1×10^6 cells of the GD3 synthase gene transfectants B16-8-3 and B16-29-10 obtained in b. of the item (2) of Example 1 and the parent cell line B16-F10 cell were suspended in PBS, put into a microtube (manufactured by Treff) and centrifuged (2,000 rpm for 2 minutes) for washing the cells, 50 μl of the anti-GD3 human chimeric antibody KM871 (a solution prepared by adjusting to 5 μg/ml with 1% BSA-PBS, negative control was 1% BSA-PBS alone) was added thereto, followed by stirring, and the reaction was carried out at 4° C. for 1 hour. After the reaction and subsequent washing with PBS by centrifugation three times, 100 μl of biotin-labeled goat anti-human IgG (H+L) solution (manufactured by VECTOR, used by diluting 400 folds with 1% BSA-PBS) was added thereto, followed by stirring, and the reaction was carried out at 4° C. for 1 hour. After washing with PBS by centrifugation three times, 100 μl of a streptoavidin-labeled Cy5 pigment solution (Streptoavidin-RED670 manufactured by GIBCO, used by diluting 100 folds with 1% BSA-PBS) was added thereto, followed by stirring, and the reaction was carried out at 4° C. for 30 minutes. After the reaction and subsequent washing with PBS by centrifugation three times, the cells were again suspended in PBS to carry out the analysis using a flow cytometer EPICS Elite (manufactured by COULTER)."}, "[4]": {"system": "human melanoma culture cell line SK-MEL-28", "assay": "In vitro cytotoxic activity (ADCC activity), 51Cr release", "assay_type": "cell-based", "settings": "antibody 0.05 to 50 μg/ml, effector:target 50:1; FIG. 25", "experimental": "(§2) Each of human melanoma culture cell lines, G-361 (ATCC CRL 1424) and SK-MEL-28 (ATCC HTB72), was cultured in RPMI1640-FBS(10) medium and adjusted to 1×10^6 cells, and the cells were isotope-labeled by adding 1.85 MBq equivalent of a radioactive substance Na2^51CrO4 and carrying out the reaction at 37° C. for 1 hour. After the reaction, the cells were washed three times by their suspension in RPMI1640-FBS(10) medium and centrifugation, re-suspended in the medium and then incubated in ice at 4° C. for 30 minutes to thereby spontaneously release the radioactive substance. After centrifugation, the cells were adjusted to 2×10^5 cells/ml by adding 5 ml of RPMI1640-FBS(10) medium and used as the target cell suspension.\n(§3) Healthy human vein blood (50 ml) was collected, and 0.5 ml of heparin sodium (manufactured by Takeda Pharmaceutical) was gently added thereto. The resulting mixture was centrifuged (1,500 to 1,800×g for 30 minutes) using Polymorphprep (manufactured by Nycomed Pharma AS) in accordance with the manufacturers instructions to separate a mononuclear cell layer. […]\n(§4) Into each well of a 96 well U bottom plate (manufactured by Falcon), 50 μl of the target cell suspension prepared in “a.” was dispensed (1×10^4 cells/well). […] After the reaction, the plate was centrifuged and the amount of ^51Cr in the supernatant was measured by a γ-counter. The amount of the spontaneously dissociated ^51Cr was calculated by carrying out the same procedure using the medium alone instead of the effector cell suspension and antibody solution and measuring the amount of ^51Cr in the supernatant. The amount of the total dissociated ^51Cr was calculated by carrying out the same procedure by adding the medium alone instead of the antibody solution, and 5 N sodium hydroxide instead of the effector cell suspension, and measuring the amount of ^51Cr in the supernatant. The ADCC activity was calculated by the following equation."}, "[5]": {"system": "human melanoma culture cell line G-361", "assay": "In vitro cytotoxic activity (ADCC activity), 51Cr release", "assay_type": "cell-based", "settings": "FIG. 25", "experimental": "as §2, §3, §4"}, "[6]": {"settings": "human serum as complement source; cited from earlier work"}, "[7]": {"system": "GD3 expressing B16 cell B16•29-10", "assay": "Antitumor effects of KM871 with human IL-2, mouse syngeneic graft model", "assay_type": "in vivo, C57 BL/6 mouse", "settings": "FIG. 4; KM871 50 μg/day, IL-2 10 μg/day, days 6-14, tail vein", "description": "Six days after the tumor inoculation, the tumor diameter was measured using slide calipers to calculate the tumor volume by the following equation, and individuals having the value within the range of 10 to 80 mm^3 were selected.\nTumor volume=(width)^2×length×0.5\nThey were divided into groups in such a manner that the average tumor volume became uniform, and then the following administration groups of A to D were arranged to carry out continuous administration of the following agents from the tail vein once a day for 8 days (from the 6th day to 14th day).\nIL-2 (Human Recombinant IL-2, Manufactured by Peprotech) Alone Group:\nThe test was carried out using 5 animals for each group. Each agent was prepared to 200 μl per animal by diluting with a citrate buffer (an aqueous solution of 10 mM citric acid and 150 n sodium chloride, adjusted to pH 6 with sodium hydroxide). From the 6th day after the inoculation, the tumor volume was periodically measured, and the antitumor effects were judged by comparing the mean value of specific volume V/V0 in each group."}},
  "data": [
    {"molecule": "KM871: anti-GD3 human chimeric antibody; VH SEQ ID NO:49, VL SEQ ID NO:50, human IgG1 and κ C regions (antibody, listed as Mus musculus, V domains shown, human IgG1 and kappa constant regions) VH: EVTLVESGGDFVKPGGSLKVSCAASGFAFSHYAMSWVRQTPAKRLEWVAYISSGGSGTYYSDSVKGRFTISRDNAKNTLYLQMRSLRSEDSAMYFCTRVKLGTYYFDSWGQGTTLTVSS VL: DIQMTQTASSLPASLGDRVTISCSASQDISNYLNWYQQKPDGTVKLLIFYSSNLHSGVPSRFSGGGSGTDYSLTISNLEPEDIATYFCHQYSKLPWTFGGGTKLEIKR", "values": [
      {"measurement": "ADCC activity in comparison with the original mouse-derived antibody", "setting": "[1]", "value": "increased"},
      {"measurement": "reactivity with cells", "setting": "[2]", "value": "showed the reactivity"},
      {"measurement": "reactivity with cells", "setting": "[3]", "value": "showed the reactivity"},
      {"measurement": "reactivity with cells", "setting": "B16-F10 cell", "value": "did not show reactivity"},
      {"measurement": "ADCC activity", "setting": "[4]", "value": "strong ADCC activity"},
      {"measurement": "difference in ADCC cytotoxic activity among KM871, KM8869, KM8870 and KM8871", "setting": "[5]; G-361 and SK-MEL-28", "value": "difference in the cytotoxic activity was not found"},
      {"measurement": "ADCC activity", "setting": "[5]; antibody 0.05 to 50 μg/ml, effector:target 50:1", "value": "strong ADCC activity"},
      {"measurement": "CDC activity in comparison with the original mouse-derived antibody", "setting": "[6]", "value": "increased"},
      {"measurement": "tumor growth inhibitory effects (mean V/V0)", "setting": "[7]", "value": "antitumor effects were not found"}
    ]}
  ]
}
